From patent US12472269B2, “Liver-specific inducible promoters and methods of use thereof” (ASKBIO INC., priority 2019, dated 2025)

B1: PB1-SV40-MP: promoter: 1 mouse PBREM element with SV40 minimal promoter, SEQ ID NO: 9 (nucleic acid)
DNA: TCTGTACTTTCCTGACCTTGGCACAGTGCCACCATCAACTTGCCTGACACCGCTGGGAGTTCGTAGACGGACTAGCCCGGGCTCGAGATCTGCGATCTGCATCTCAATTAGTCAGCAACCATAGTCCCGCCCCTAACTCCGCCCATCCCGCCCCTAACTCCGCCCAGTTCCGCCCATTCTCCGCCCCATCGCTGACTAATTTTTTTTATTTATGCAGAGGCCGAGGCCGCCTCGGCCTCTGAGCTATTCCAGAAGTAGTGAGGAGGCTTTTTTGGAGGCCTAGGCTTTTGCAAAAAGCTTGGCATTCCGGTACTGTTGGTAAAGCCACCC
modifications: PB1-SV40-MP
B2: PB1-CMV-MP: promoter: 1 mouse PBREM element with CMV minimal promoter, SEQ ID NO: 8 (nucleic acid)
DNA: TCTGTACTTTCCTGACCTTGGCACAGTGCCACCATCAACTTGCCTGACACCGCTGGGAGTTCGTAGACGGAGCGATTAATCCATATGCAGGTCTATATAAGCAGAGCTCGTTTAGTGAACCGTCAGATCGCCTAGATACGCCATCCACGCTGTTTTGACCTCCATAGAAGATCGCCACCC
modifications: PB1-CMV-MP
B3: PB1-1-MinTK: promoter: 2 mouse PBREM elements with MinTK minimal promoter, SEQ ID NO: 10 (nucleic acid)
DNA: TCTGTACTTTCCTGACCTTGGCACAGTGCCACCATCAACTTGCCTGACACCCATTACTCGCATCCATTCTCTCTGTACTTTCCTGACCTTGGCACAGTGCCACCATCAACTTGCCTGACACCGCTGGGAGTTCGTAGACGGAGATCCGGCCCCGCCCAGCGTCTTGTCATTGGCGAATTCGAACACGCAGATGCAGTCGGGGCGGCGCGGTCCGAGGTCCACTTCGCATATTAAGGTGACGCGTGTGGCCTCGAACACCGAGCGACCCTGCAGCGACCCGCTTAACAGCGTCAACAGCGTGCCGCAGATCTCGAGGAGCTTGGCGAGATTTTCAGGAGCTAAGGAAGCTAAAC
modifications: PB1-1-MinTk (2xPBREM)
B4: PB1-3-MinTK: promoter: 4 mouse PBREM elements with MinTK minimal promoter, SEQ ID NO: 12 (nucleic acid)
DNA: TCTGTACTTTCCTGACCTTGGCACAGTGCCACCATCAACTTGCCTGACACCCATTACTCGCATCCATTCTCTCTGTACTTTCCTGACCTTGGCACAGTGCCACCATCAACTTGCCTGACACCGCACTGAAGGTCCTCAATCGTCTGTACTTTCCTGACCTTGGCACAGTGCCACCATCAACTTGCCTGACACCCTGACCTCCTGCCAGCAATATCTGTACTTTCCTGACCTTGGCACAGTGCCACCATCAACTTGCCTGACACCGCTGGGAGTTCGTAGACGGAGATCCGGCCCCGCCCAGCGTCTTGTCATTGGCGAATTCGAACACGCAGATGCAGTCGGGGCGGCGCGGTCCGAGGTCCACTTCGCATATTAAGGTGACGCGTGTGGCCTCGAACACCGAGCGACCCTGCAGCGACCCGCTTAACAGCGTCAACAGCGTGCCGCAGATCTCGAGGAGCTTGGCGAGATTTTCAGGAGCTAAGGAAGCTAAAC
modifications: PB1-3-MinTk
B5: PB1-1-SV40: promoter: 2 mouse PBREM elements with SV40 minimal promoter, SEQ ID NO: 13 (nucleic acid)
DNA: TCTGTACTTTCCTGACCTTGGCACAGTGCCACCATCAACTTGCCTGACACCCATTACTCGCATCCATTCTCTCTGTACTTTCCTGACCTTGGCACAGTGCCACCATCAACTTGCCTGACACCGCTGGGAGTTCGTAGACGGACTAGCCCGGGCTCGAGATCTGCGATCTGCATCTCAATTAGTCAGCAACCATAGTCCCGCCCCTAACTCCGCCCATCCCGCCCCTAACTCCGCCCAGTTCCGCCCATTCTCCGCCCCATCGCTGACTAATTTTTTTTATTTATGCAGAGGCCGAGGCCGCCTCGGCCTCTGAGCTATTCCAGAAGTAGTGAGGAGGCTTTTTTGGAGGCCTAGGCTTTTGCAAAAAGCTTGGCATTCCGGTACTGTTGGTAAAGCCACCC
modifications: PB1-1-SV40
B6: PB1-2-SV40: promoter: 3 mouse PBREM elements with SV40 minimal promoter, SEQ ID NO: 14 (nucleic acid)
DNA: TCTGTACTTTCCTGACCTTGGCACAGTGCCACCATCAACTTGCCTGACACCCATTACTCGCATCCATTCTCTCTGTACTTTCCTGACCTTGGCACAGTGCCACCATCAACTTGCCTGACACCGCACTGAAGGTCCTCAATCGTCTGTACTTTCCTGACCTTGGCACAGTGCCACCATCAACTTGCCTGACACCGCTGGGAGTTCGTAGACGGACTAGCCCGGGCTCGAGATCTGCGATCTGCATCTCAATTAGTCAGCAACCATAGTCCCGCCCCTAACTCCGCCCATCCCGCCCCTAACTCCGCCCAGTTCCGCCCATTCTCCGCCCCATCGCTGACTAATTTTTTTTATTTATGCAGAGGCCGAGGCCGCCTCGGCCTCTGAGCTATTCCAGAAGTAGTGAGGAGGCTTTTTTGGAGGCCTAGGCTTTTGCAAAAAGCTTGGCATTCCGGTACTGTTGGTAAAGCCACCC
modifications: PB1-2-SV40
B7: PB1-3-SV40: promoter: 4 mouse PBREM elements with SV40 minimal promoter, SEQ ID NO: 15 (nucleic acid)
DNA: TCTGTACTTTCCTGACCTTGGCACAGTGCCACCATCAACTTGCCTGACACCCATTACTCGCATCCATTCTCTCTGTACTTTCCTGACCTTGGCACAGTGCCACCATCAACTTGCCTGACACCGCACTGAAGGTCCTCAATCGTCTGTACTTTCCTGACCTTGGCACAGTGCCACCATCAACTTGCCTGACACCCTGACCTCCTGCCAGCAATATCTGTACTTTCCTGACCTTGGCACAGTGCCACCATCAACTTGCCTGACACCGCTGGGAGTTCGTAGACGGACTAGCCCGGGCTCGAGATCTGCGATCTGCATCTCAATTAGTCAGCAACCATAGTCCCGCCCCTAACTCCGCCCATCCCGCCCCTAACTCCGCCCAGTTCCGCCCATTCTCCGCCCCATCGCTGACTAATTTTTTTTATTTATGCAGAGGCCGAGGCCGCCTCGGCCTCTGAGCTATTCCAGAAGTAGTGAGGAGGCTTTTTTGGAGGCCTAGGCTTTTGCAAAAAGCTTGGCATTCCGGTACTGTTGGTAAAGCCACCC
modifications: PB1-3-SV40
B8: PB1-1-CMV: promoter: 2 mouse PBREM elements with CMV minimal promoter, SEQ ID NO: 16 (nucleic acid)
DNA: TCTGTACTTTCCTGACCTTGGCACAGTGCCACCATCAACTTGCCTGACACCCATTACTCGCATCCATTCTCTCTGTACTTTCCTGACCTTGGCACAGTGCCACCATCAACTTGCCTGACACCGCTGGGAGTTCGTAGACGGAGCGATTAATCCATATGCAGGTCTATATAAGCAGAGCTCGTTTAGTGAACCGTCAGATCGCCTAGATACGCCATCCACGCTGTTTTGACCTCCATAGAAGATCGCCACCC
modifications: PB1-1-CMV

System: AXOL ARE-hepatocytes
Test: Luciferase expression from PBREM promoters in AXOL ARE-hepatocytes, induction by CITCO
Type: cell-based, human
Details: for induced luciferase expression as a ratio to CMV-IE: induction with CITCO, mean of 3 biological replicates
Excerpt: Axol Assay-Ready Expanded (ARE) Hepatocytes are primary human hepatocytes that have been expanded in vitro. Large batch sizes (up to 2000 vials) are available, ensuring a reliable, ready-to-use and consistent source of primary hepatocytes. ARE Hepatocytes express CYP enzymes, are metabolically functional, are polarized and can be infected by the Hepatitis C virus. AXOL ARE-hepatocytes express CAR negating the need to transfect with a CAR-expressing plasmid.
• AXOL assay-ready expanded (ARE) hepatocytes (Axol, ax3701) • ARE hepatocyte thawing medium (Axol, ax3705) • ARE maintenance medium (Axol, ax3710) • Virimer red transfection reagent (Lipocalyx, VR04-02-15) • CITCO, lucifierase, β-galactosidase and BCA kits as described above
ARE hepatocytes were cultured and transfected as described in the manufacturer's manual. 200,000 cells were seeded in 2 ml culture medium in collagen-coated 6 well plate. The cells were incubated for 4 h at 37° C. and 5% CO2 for sufficient adhesion. 200 μl of transfection mixture containing the DNA to be transfected (PB1-MinTK/PB1-CMV/PB1-SV40 operably linked with luciferase and β-galactosidase containing promoter) was added and the cells were incubated on an orbital shaker at 100 rpm for three hours at 37° C. and 5% CO2. 3 hrs after transfection CITCO was added to the appropriate wells. Cells were incubated under static conditions at 37° C. and 5% CO2 overnight and in the morning the medium was replaced with fresh ARE Hepatocyte Maintenance Medium. Readout was 24 hrs after induction. […]

[1] = single PBREM element, minimal promoters compared

| Molecule | induced luciferase expression as a ratio to CMV-IE | also measured |
| --- | --- | --- |
| B1 |  | expression level compared to CMV-IE (1 μM CITCO): 55%; induction of luciferase expression (1 μM CITCO, readout 24 hrs after induction): around 7 fold; background level [1]: higher background level; expression driven [1]: highest expression |
| B2 |  | expression level compared to CMV-IE (1 μM CITCO): 10%; expression driven [1]: little to no expression |
| B3 | 1.5 |  |
| B4 | 2.66 |  |
| B5 | 2.6 |  |
| B6 | 3.6 |  |
| B7 | 2.57 |  |
| B8 | 1.9 |  |
